One test has as its target T1, Her-3 (human, UniProt P21860 20-1342).
T1 construct: whole, on cells; In the IHC and VERATAG assays the protein stood in formalin-fixed, paraffin-embedded cells or tumor sections; also called ErbB3; c-erb-B3
As to the kind of experiment: IHC on FFPE 293H3-clone 1 cells over-expressing HER3.

In a further test the target is T2, Her-2 (human, UniProt P04626 23-1255).
T2 construct: whole, on cells; also called ErbB2; c-Erb-B2
As to the kind of experiment: IHC on FFPE SKOV3 cells (high HER2, low HER3).

T1 sequence (P21860 20-1342): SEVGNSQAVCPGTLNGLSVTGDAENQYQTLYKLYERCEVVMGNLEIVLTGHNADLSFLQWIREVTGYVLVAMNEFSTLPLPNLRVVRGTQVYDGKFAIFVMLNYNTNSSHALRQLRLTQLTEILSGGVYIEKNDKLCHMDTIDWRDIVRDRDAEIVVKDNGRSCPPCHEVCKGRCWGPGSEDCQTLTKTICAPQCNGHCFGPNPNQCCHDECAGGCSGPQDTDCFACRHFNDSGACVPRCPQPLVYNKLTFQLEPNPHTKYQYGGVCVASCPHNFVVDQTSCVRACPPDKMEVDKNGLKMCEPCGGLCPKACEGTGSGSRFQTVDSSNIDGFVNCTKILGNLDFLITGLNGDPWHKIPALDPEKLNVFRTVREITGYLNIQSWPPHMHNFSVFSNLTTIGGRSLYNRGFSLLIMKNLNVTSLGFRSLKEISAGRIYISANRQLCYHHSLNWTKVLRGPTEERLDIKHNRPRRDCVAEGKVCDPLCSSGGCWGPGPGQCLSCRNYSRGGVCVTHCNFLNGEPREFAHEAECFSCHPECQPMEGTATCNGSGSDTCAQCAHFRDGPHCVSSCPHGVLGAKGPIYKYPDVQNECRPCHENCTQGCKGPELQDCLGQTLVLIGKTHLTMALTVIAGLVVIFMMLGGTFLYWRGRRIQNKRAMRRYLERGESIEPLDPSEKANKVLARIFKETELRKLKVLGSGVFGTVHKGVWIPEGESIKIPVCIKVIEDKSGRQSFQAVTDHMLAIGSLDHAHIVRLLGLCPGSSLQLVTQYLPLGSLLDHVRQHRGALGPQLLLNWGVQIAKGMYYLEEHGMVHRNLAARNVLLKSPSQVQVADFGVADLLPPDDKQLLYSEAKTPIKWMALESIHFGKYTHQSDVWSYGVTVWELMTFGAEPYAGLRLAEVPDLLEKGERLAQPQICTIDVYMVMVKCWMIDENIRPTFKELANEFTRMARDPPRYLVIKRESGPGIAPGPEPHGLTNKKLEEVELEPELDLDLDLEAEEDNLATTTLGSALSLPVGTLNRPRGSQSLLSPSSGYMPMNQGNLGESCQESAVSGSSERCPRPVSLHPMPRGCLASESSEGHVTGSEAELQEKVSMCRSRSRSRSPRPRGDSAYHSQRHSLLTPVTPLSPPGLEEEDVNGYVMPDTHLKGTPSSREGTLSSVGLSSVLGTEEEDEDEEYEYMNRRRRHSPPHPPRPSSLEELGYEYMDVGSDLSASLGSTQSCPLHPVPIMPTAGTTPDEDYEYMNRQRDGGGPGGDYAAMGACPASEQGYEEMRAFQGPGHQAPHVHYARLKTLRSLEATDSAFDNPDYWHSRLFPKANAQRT

B1: Her3.B9A11.H1 (antibody, V domains shown)
VH: EVQLQQPGTVLARPGASVRMSCKASGYTFTSYWMHWVKQRPGQGLEWIGAIYPGNSDTRDNQKFKGKAELTAVTSASTAYMELSSLTNEDSAVYYCTSYYFDGAGYFDFWGQGTTLTVSS
VL: DIVMSQSPSSLAVSAGEKVTLSCKSSQSLLNSRTRKNYLAWYQQKPGQSPKLLIYWASTRESGVPDRFTGSGSGTDFTLTVSSVQAEDLAVYYCKQSYNLWTFGGGTKLEIK
notes: Mouse hybridoma monoclonal antibody; The matched isotype control is IgG1; also called B9A11-biotin
Regarding B1, the binding result with Her-3 is given as “binds”; with Her-2 it was “no binding”.

The record behind these values is patent publication US20160061839A1 (LABORATORY CORPORATION OF AMERICA, published 2016).
